The source of these data is US11078465B2, “Alcohol dehydrogenase mutant and application thereof in synthesis of diaryl chiral alcohols” (Jiangnan University, priority 2018, dated 2021).

Common to all, as to format: biochemical
Series [1] concerns O=C(c1ccc(Cl)cc1)c1ccccn1. Nature of the series: Kinetic analysis of alcohol dehydrogenase (CPMK reduction, NADPH absorption at 340 nm). As to conditions: other: WT, substrate CPMK, pH 7.0, 30° C. The procedure:
(§1) Adopting a total reaction system of 200 μL, including: 1.0 mM NADPH, 1.0 mM substrate CPMK and sodium phosphate buffer (PBS, 100 mM, pH 7.0), fully and evenly mixing, maintaining at 30° C. for 2 min, adding an appropriate amount of enzyme solution, and detecting the change in light absorption at 340 nm.
(§2) The enzyme activity was calculated by the following formula: Enzyme activity (U)=EW×V×10^3/(6220×I);
(§3) in the formula, EW is the change in absorbance at 340 nm in 1 min; V is the volume of a reaction solution in mL; 6220 is the molar extinction coefficient of NADPH in L/mol·cm); and 1 is the optical path distance in cm. One activity unit (U) corresponds to the amount of enzyme required to catalyze the oxidation of 1 μmol NADPH per minute under the above conditions.
(§4) A column used for purification was a nickel affinity column HisTrap FF crude, and purification was achieved through affinity chromatography using a histidine tag on recombinant protein. The nickel column was equilibrated with a solution A first, a crude enzyme solution was loaded, a penetrating peak was further eluted off using the solution A, and after equilibrium, a solution B (20 mM sodium phosphate, 500 mM NaCl, and 1000 mM imidazole, pH 7.4) was used for gradient elution to elute off the recombinant protein bound to the nickel column, so as to obtain the recombinant alcohol dehydrogenase mutant. The purified protein was subjected to activity measurement (CPMK as substrate, and NADPH as coenzyme) and SDS-PAGE analysis. […] The purified alcohol dehydrogenase protein was then replaced into a Tris-HCl (100 mM, pH 7.0) buffer using a Hi Trap Desalting column (GE Healthcare).
(§5) The activity of KpADH at different substrate concentrations and coenzyme concentrations was determined, and a double reciprocal curve was made based on the reciprocal of activity and substrate concentration to calculate kinetic parameters.

In series [2] the target is alcohol dehydrogenase KpADH (SEQ ID No. 2) mutant F320W/S237A (Vanderwaltozyma polyspora, UniProt A7TM80, form not given/S237A). Nature of the series: Kinetic analysis of alcohol dehydrogenase mutant (CPMK reduction, NADPH absorption at 340 nm). As to conditions: substrate CPMK, pH 7.0, 30° C. The procedure:
as §1, §2, §3, §4, §5
(§6) Two mutants of S237A and S237C valuable for modification of asymmetric synthesis R- and S- are obtained by random mutation screening, and the two sites are used as templates for random mutation. […] It can be known by combining the data in Tables 2 and 3 that the 214 site of alcohol dehydrogenase is a site that is important for determining selectivity improvement and inversion.

Series [3] deals with alcohol dehydrogenase KpADH (SEQ ID No. 2) mutant F320V/S237A (Vanderwaltozyma polyspora, UniProt A7TM80, form not given/S237A). Described as above. Particulars: substrate CPMK, pH 7.0, 30° C. The procedure:
as §1, §2, §3, §4, §5, §6

The target of series [4] is alcohol dehydrogenase KpADH, wild type (WT), SEQ ID No. 2 (Vanderwaltozyma polyspora, UniProt A7TM80). Nature of the series: Kinetic analysis of alcohol dehydrogenase (CPMK reduction, NADPH absorption at 340 nm). Details: unit not given here. How it is done: as §1, §2, §3, §4, §5
The subject of series [5] is O=C(c1ccc(Cl)cc1)c1ccccn1. Nature of the series: Kinetic analysis of alcohol dehydrogenase mutant (CPMK reduction, NADPH absorption at 340 nm). As to conditions: other: A269C/S237C, substrate CPMK, pH 7.0, 30° C. How it is done:
as §1, §2, §3, §4, §5, §6

Series [6] deals with O=C(c1ccc(Cl)cc1)c1ccccn1. The description is as above. As to conditions: other: E214G/S237C, substrate CPMK, pH 7.0, 30° C.

As usually defined, the Vmax is the rate approached at saturating substrate. Usually kcat stands for the maximal rate divided by the concentration of active sites. The kcat/Km is the second-order rate constant that governs catalysis at low substrate concentration. Take “alcohol dehydrogenase KpADH, wild type (WT), SEQ ID No. 2 (Vanderwaltozyma polyspora DSM 70294)”: in series [1], the Km came out at 760 ± 190 µM, the maximal velocity (Vmax) was determined as 21.3 µM/min/mg, the turnover number (kcat) was determined as 14.2 ± 1.16 s⁻¹ and the kcat/Km was 18700 ± 620 M⁻¹ s⁻¹.
Regarding `O=C(c1ccc(Cl)cc1)c1ccccn1` [CPMK, (4-chlorophenyl)-(pyridin-2-yl)-methanone], the Kcat in series [2] is 11.07 ± 0.25 s⁻¹; in series [3] it was 5.9 ± 0.09 s⁻¹. For the same molecule, the Km in series [2] stood at 1660 ± 20 µM; in series [3], 1150 ± 50 µM; in series [4], 0.76. In addition, the Vmax in series [2] is 16.6 ± 0.37 µM/min/mg; in series [3], 8.9 ± 0.78 µM/min/mg.
Regarding “alcohol dehydrogenase KpADH (SEQ ID No. 2) mutant A269C/S237C (Vanderwaltozyma polyspora DSM 70294; A269C/S237C)”, in series [5], the Km was found to be 1560 ± 20 µM, the Vmax amounted to 22.6 µM/min/mg, the catalytic constant (kcat) turned out to be 15.4 ± 0.86 s⁻¹ and the catalytic efficiency (kcat/Km) came to 9900 ± 360 M⁻¹ s⁻¹.
In the case of “alcohol dehydrogenase KpADH (SEQ ID No. 2) mutant M12, E214G/S237C (Vanderwaltozyma polyspora DSM 70294; E214G/S237C)”, in series [6], the Km was found to be 310 ± 20 µM, the maximal velocity (Vmax) was found to be 9.54 µM/min/mg, the turnover number (kcat) is 6.3 ± 0.11 s⁻¹ and the specificity constant (kcat/Km) was determined as 22100 ± 1370 M⁻¹ s⁻¹.
